± gives the uncertainty stated by the source.
assay: amyloid nucleation score (Sup35N fusion, yeast selection) (log enrichment); library NNK3; higher = more nucleation; inactive = no reads after selection
Summary of the method: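 The nucleation score is the log enrichment of output over input reads, calculated with DiMSum and centred on the mode score of non-aggregating sequences. Sequences with under 100 input reads were excluded. Reads came from Illumina sequencing of plasmid inserts from psi-negative yeast expressing Sup35N fused to peptides of 20 random codons, induced 24 hours with 100 μM copper sulfate and grown 7 days at 30°C without adenine and uracil.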

Amyloid nucleation score, -0.085 ± 1:
ELGFCNWGGLSWLNQDSSGV

Amyloid nucleation score, 1.74 ± 0.11:
FDGKMVYFSAEFSFDKFLDR

Amyloid nucleation score, -0.577 ± 2.4:
EVFHIRMSVF

Amyloid nucleation score, 1.64 ± 0.087:
ETGDI

Amyloid nucleation score, 1.56 ± 0.11:
FERISRSFAYIDIRHIICMF

Amyloid nucleation score, 1.05 ± 0.17:
EGSNI

Amyloid nucleation score, 0.889 ± 0.14:
FCLVLGVWNLVPPGVKSMMQ

Amyloid nucleation score, -0.498 ± 0.91:
ECCDFSGCRCTSS

Amyloid nucleation score, 0.821 ± 0.26:
EFFAPSVTDQMLTFRLLYKT

Amyloid nucleation score, 0.724 ± 0.14:
EDSRLLGC

Amyloid nucleation score, -0.176 ± 0.98:
FDDPHGTVTCED

Amyloid nucleation score, 0.757 ± 0.22:
FCLRLTYVRS

Amyloid nucleation score, 0.156 ± 0.42:
DSYSIILCFHKNKLLVLLSP

Amyloid nucleation score, 2.38 ± 0.073:
EVKSDVMKLFNCVFSCPLTF

Amyloid nucleation score, 1.8 ± 0.09:
DSFVLYALCNYWCSFCIKGA

Amyloid nucleation score, 2.06 ± 0.066:
DSISCCSPNITAYEFYGLTG

Amyloid nucleation score, -0.402 ± 0.63:
DTNGMMRAMLRYPIIRFLYA

Amyloid nucleation score, inactive:
DLQFGVGVTASPAAYCRYLS
DLQYLMLHVHNFYICDRYQP
DLVRAMRCHSVGDVGYASSS
DMDDHPDYHRNTND
DMGTTCPSCSKRLAGQGKAA
DMMYVIRIFFLATEYSSLHP
DMSPRMTLSIKSA
DNDVHKELFSPAASLSSTWS
DNHVVKVQL
DPGHGS
DPYFVG
DQAYWKQCSMSIWYGFRRLV
DQMTHFYYPRNRPRFAISLA
DRCWMCLEAALQVAACVGSG
DRFFTSFSVCSPNDDKGLL
DRGVLFRHIILGSPHIMNRV
DRKLLYY
DRRNNVRFVVLFSRRYCGQA
DRVCSSRML
DRVDIRATADELGLR
DSCAIES
DSCTDEENM
DSIRLLLALPH
DSKSSYK
DSMLVISVRVRTCMLGNVVA
DSSKWHAMYMLTKMKMTGWL
DSSPVPKGYNRVRPLVNLAV
DSVNRCFARGILSCLVCL
DSVRASSLLWMFWCIVEFHG
DSWHFFCFIMVCIVKYWFFA
DTRVGP
DTSGSCSILTRSRNMSFWRR
DTSTSMFRRVMEATVSTSLL
DTSVYFQSSTCCAKKSGHKP
DTVMRSVLEAIVYINKIFVR
DTYIGNINESMH
DVCGFYIHFRFTNKYQGVAS
DVCLGWAQTAFRCLMRG
DVLLVIKVDYQVGLARVSRL
DVPVKNSYDFMYDCWAMPCS
DVRFVRDAGAVFLIILSERH
DVRRWNNYDLRGWVVA
DVTTDDSSFRYMLKLLRGIT
DVYKNPLSEQPSRYCTE
DWLMPIFQVNIEMLWLSWLW
DWVMADRMSPVKIMYATSSG
DYESCEIRVLETEWIGVGT
DYGSFMYSLTSCMVNYWYMA
DYIRHSFHCVLILSDKSHFS
DYSHLCSNIQGIAFVVVIQN
DYYGLK
DYYSCFISYRLIRYWICGEA
EAYDGKSSICSRCS
ECYCWFVNWLSFCKNGYSGM
EDAWMIVRISGC
EDFLNSWKVSYWKNHTMVVW
EDHCSLFKLSAFTAYTGLAL
EEMLRHCHKIRERWGSKSFE
EERRDLAPTDLTWKDFRALQ
EFMAGNDSRIQCSRIRGCYG
EFSVLWMLQMDHSTLKFANS
EGFPV
EGMEWVVEDNFRKMCYTARF
EGNMLASRSSGEPS
EGPVSGPC
EGRNFRCLFG
EGRSNNLCSSSSLWQVHAAL
EGSHVPIILGYREFCVFILT
EICGCCWKPVMWTGRCSCVY
EICKSLKLCNIWNCRIMLRS
EIGSHIGDVQHRVFYNVTLV
EIQSVMLYIASTFSILYLRH
EKFRWQSISIEVECSMAVQH
EKLIVNDYCRRSGPDMVAVD
EKMAADQSS
EKYRNGGY
ELFMPDSIRT
ELLVNN
EMSWRSVKSSHYKQMEFSGR
ENCAWSRIIRRFNECNTLV
ENERM
EPGSANRSSESNCRVGGTDD
EPTVC
EQKGKQFEVSVDSYSTWEVG
EQRLSSGRWVS
ERFYTLVI
ERKCLLCNYHMY
ERNAGLITAFYFYSPFGTMM
ERRRVRP
ERSVPSGE
ESAKFYLYSAR
ESFHMFFFQLLSYCFSNCGW
ESFPFVSASDCSCSNR
ESFWVML
ESIRCFSTYKNGSIRSFRAL
ESIYVNPGDSL
ESLAWS
ESLIRVICMVDERSEQTWSG
ESMRGSYSYYSSGCLHD
ESWVFRTRDMPGEFTSSVCM
ETFFIYDVALQ
ETVDSFVM
EVIVVKGHGVHIVFCVGSAS
EVLEFVSNGGMVTEMGP
EVNWSIIRGWVEISYTVPEL
EVRPCNMLGLRNIGRGYREN
EVVKLVR
EVYEMNSIRMRSSELSME
EWFCLCWT
EWGTWSTY
EWIGVVNVRNDPPSGC
EYAKMSLCPSYRFCVLFASW
EYELESESKCPLDFAFIKKG
EYKAPREFPSTNCIHFNLMT
EYRLVKFHSPLFQRIKSIVA
EYTLPRPCRLLIFSDQYSNA
FALTIGSFSRMNHTVPNPFE
FCLNYDGGWWCRMSCVYNQG
FCVEIMSLSVRGCWGYSFGT
FCWVLCTP
FCYVSCLS
FDLVFLLYMGMTQ
FDSFLWLTMNWIELIGNILV
FDWIE
FDYLLYQLCYVYRTYKTVRR
FDYWCKVMSHEYYVEEPNIY
FEKGSFLDRTESSHIGGLMH
FELVIYQIVRIIVRSLADIS
FEWLWIFWYNLFWLWGNYSI

Amyloid nucleation score, 0.049 ± 0.47:
FCRLGIRSVFIYFKVTSLIV

Amyloid nucleation score, -0.191 ± 0.74:
DYTGT

Amyloid nucleation score, 1.09 ± 0.092:
EFYFATRMMF

Amyloid nucleation score, 0.52 ± 0.17:
DRISGFVIKYNFNLSFSEMW

Amyloid nucleation score, 1.66 ± 0.083:
FCAVALFFNTSVSFIDRSLP

Amyloid nucleation score, 1.31 ± 0.072:
DMFNLNLFGLLNCLGVMEET

Amyloid nucleation score, 1.02 ± 0.18:
FDLPCSYRCSMTYCYGVNGI

Amyloid nucleation score, 0.926 ± 0.16:
ELFILHSGGGWCSGI

Amyloid nucleation score, 0.342 ± 0.69:
FAFKLWRKVQYVFHLFYPAR

Amyloid nucleation score, -0.737 ± 1.5:
EGVFHACDSTGT

Amyloid nucleation score, 2.41 ± 0.06:
FCKLYINQYIYHDSVVVIVG

Amyloid nucleation score, 0.724 ± 0.18:
DRSDNRSGYFMINVVYNDGE

Amyloid nucleation score, -0.59 ± 1.4:
DRPSWNMRSLNFSGQSVR

Amyloid nucleation score, -0.067 ± 0.75:
FCFLLKALTYHLS

Amyloid nucleation score, 0.196 ± 0.52:
DVFSNMSWYYCNVIWNAYDM

— the supplement of paper PMC12042874
